Data published in PMC5914118, “Exploiting the Concept of Multivalency with ^68Ga- and ^89Zr-Labelled Fusarinine C-Minigastrin Bioconjugates for Targeting CCK2R Expression” (Contrast Media & Molecular Imaging, 2018).
Marks after values point to notes of the source that are not given here.

Legend:
[1] = assay type: physicochemical
Procedure: Aliquots (50 μL) of ^68Ga- and ^89Zr-labelled mono-, di-, and trimer (10 μM) were diluted in 450 μL PBS. After adding 500 μL octanol the mixture was vortexed with 1400 rpm (MS 3 basic vortexer, IKA, Staufen, Germany) for 15 min at RT followed by centrifugation for 2 min at 4500 rpm. Subsequently, 100 μL aliquots of the organic and the aqueous layer were collected and logD values were calculated using Excel (n = 3, six replicates) after gamma counter measurement.

[2] = system: A431-CCK2R/A431-mock tumour xenografted BALB/c nude mice; details: mouse, in vivo; for Biodistribution: A431-CCK2R tumour (receptor positive) / Biodistribution: A431-mock tumour (receptor negative) / Biodistribution: Blood / Biodistribution: Bone / Biodistribution: Heart / Biodistribution: Intestine / Biodistribution: Kidneys / Biodistribution: Liver / Biodistribution: Lung / Biodistribution: Muscle / Biodistribution: Pancreas / Biodistribution: Spleen / Biodistribution: Stomach: 1 h
Procedure: All animal experiments were conducted in compliance with the Austrian and Dutch animal protection laws and with approval of the Austrian Ministry of Science (BMWF-66.011/000604-II/3b/2012 and BMWFW-66.011/0049-WF/II/3b/2014). In vivo stability studies were conducted in 5-week-old female BALB/c mice (in-house breed, ZVTA Innsbruck, Dr. Hermann Dietrich). The biodistribution studies were performed using female 8−10-week-old athymic BALB/c nude mice (Charles River Laboratories, Sulzfeld, Germany). Tumour xenografts were induced by subcutaneous injection of 2 × 10^6 A431-CCK2R cells (receptor positive) in the right and the same amount of A431-mock (receptor negative) in the left flank. Tumours were allowed to grow until they had reached a volume of 0.3–0.6 cm^3. To evaluate the biodistribution profile nude mice (n = 4) were intravenously injected with either 1-2 MBq ^68Ga- or 0.3 MBq ^89Zr-labelled mono-, di-, and trimer (0.1–0.2 nmol). The animals were sacrificed by cervical dislocation after 1 h as well as 2 h and 4 h in case of ^68Ga- and ^89Zr-labelled trimer, followed by the collection of organs and tissue. The collected samples were measured in the gamma counter and the results were calculated as percentage of injected dose per gram tissue (% ID/g).

[3] = target: T1, human CCK2R (A431-CCK2R cells) (Homo sapiens, UniProt P32239); set-up: method as in PMID 28462989; details: reference peptide, whole A431-CCK2R cells; cited from earlier work
T1 construct: expressed in transfected cells; host or cells: A431 human epidermoid carcinoma cells, stably transfected (plasmid pCR3.1); gift from Aloj
T1 sequence (P32239 1-447): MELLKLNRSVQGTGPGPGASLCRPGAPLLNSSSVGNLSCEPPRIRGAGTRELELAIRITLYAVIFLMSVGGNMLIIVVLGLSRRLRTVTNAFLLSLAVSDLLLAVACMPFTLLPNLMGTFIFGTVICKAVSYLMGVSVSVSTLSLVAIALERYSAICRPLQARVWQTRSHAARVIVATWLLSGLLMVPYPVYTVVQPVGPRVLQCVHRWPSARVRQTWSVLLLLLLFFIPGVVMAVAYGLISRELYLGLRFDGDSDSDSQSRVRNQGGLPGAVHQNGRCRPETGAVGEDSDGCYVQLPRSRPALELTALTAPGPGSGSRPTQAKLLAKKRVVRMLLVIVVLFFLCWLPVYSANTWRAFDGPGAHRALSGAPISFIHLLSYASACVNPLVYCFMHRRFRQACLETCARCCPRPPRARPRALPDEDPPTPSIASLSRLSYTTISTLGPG

| Compound | Distribution coefficient logD (pH 7.4) [1] | Tumour-to-organ ratio (T/O): A431-mock [2] | Tumour-to-organ ratio (T/O): Blood [2] | Tumour-to-organ ratio (T/O): Bone [2] | Tumour-to-organ ratio (T/O): Heart [2] | Tumour-to-organ ratio (T/O): Intestine [2] | Tumour-to-organ ratio (T/O): Kidneys [2] | Tumour-to-organ ratio (T/O): Liver [2] | Tumour-to-organ ratio (T/O): Lung [2] | Tumour-to-organ ratio (T/O): Muscle [2] | Tumour-to-organ ratio (T/O): Pancreas [2] | Tumour-to-organ ratio (T/O): Spleen [2] | Tumour-to-organ ratio (T/O): Stomach [2] | Biodistribution: A431-CCK2R tumour (receptor positive) [2] | Biodistribution: A431-mock tumour (receptor negative) [2] | Biodistribution: Blood [2] | Biodistribution: Bone [2] | Biodistribution: Heart [2] | Biodistribution: Intestine [2] | Biodistribution: Kidneys [2] | further results |
| --- | --- | --- | --- | --- | --- | --- | --- | --- | --- | --- | --- | --- | --- | --- | --- | --- | --- | --- | --- | --- | --- |
| CSCC[C@H](NC(=O)[C@H](Cc1c[nH]c2ccccc12)NC(=O)CNC(=O)[C@H](Cc1ccc(O)cc1)NC(=O)[C@H](C)NC(=O)[C@@H](CCC(=O)O)NC(=O)CCSC1CC(=O)N(CCC(=O)NC2CCCN(O)C(=O)C=C(C)CCOC(=O)C(NC(C)=O)CCCN(O)C(=O)C=C(C)CCOC(=O)C(NC(C)=O)CCCN(O)C(=O)C=C(C)CCOC2=O)C1=O)C(=O)N[C@@H](CC(=O)O)C(=O)N[C@@H](Cc1ccccc1)C(N)=O (stereo partly shown) [^89Zr-labelled Monomer, metal not drawn] | −3.17 ± 0.06 | 7.5 ± 1.8 | 9.0 ± 4.7^b | 4.7 ± 1.3^b | 14.8 ± 4.7^b | 7.9 ± 2.3 | 0.17 ± 0.03^b | 12.4 ± 2.8^b | 6.5 ± 1.6^b | 15.9 ± 4.2^b | 13.3 ± 2.9^b | 18.7 ± 6.1^b | 4.9 ± 1.3^b | 1.91 ± 0.40 % ID/g | 0.26 ± 0.05^ab % ID/g | 0.30 ± 0.19^ab % ID/g | 0.42 ± 0.10^ab % ID/g | 0.14 ± 0.05^ab % ID/g | 0.27 ± 0.10^abd % ID/g | 11.3 ± 2.10^ab % ID/g | Biodistribution: Liver [2]: 0.16 ± 0.04^abd % ID/g; Biodistribution: Lung [2]: 0.31 ± 0.09^ab % ID/g; Biodistribution: Muscle [2]: 0.13 ± 0.04^ab % ID/g; Biodistribution: Pancreas [2]: 0.15 ± 0.04^abd % ID/g; Biodistribution: Spleen [2]: 0.12 ± 0.04^ab % ID/g; Biodistribution: Stomach [2]: 0.42 ± 0.14^abd % ID/g |
| CSCC[C@H](NC(=O)[C@H](Cc1c[nH]c2ccccc12)NC(=O)CNC(=O)[C@H](Cc1ccc(O)cc1)NC(=O)[C@H](C)NC(=O)[C@@H](CCC(=O)O)NC(=O)CCSC1CC(=O)N(CCC(=O)NC2CCCN(O)C(=O)C=C(C)CCOC(=O)C(NC(=O)CCN3C(=O)CC(SCCC(=O)N[C@H](CCC(=O)O)C(=O)N[C@@H](C)C(=O)N[C@@H](Cc4ccc(O)cc4)C(=O)NCC(=O)N[C@@H](Cc4c[nH]c5ccccc45)C(=O)N[C@@H](CCSC)C(=O)N[C@@H](CC(=O)O)C(=O)N[C@@H](Cc4ccccc4)C(N)=O)C3=O)CCCN(O)C(=O)C=C(C)CCOC(=O)C(NC(C)=O)CCCN(O)C(=O)C=C(C)CCOC2=O)C1=O)C(=O)N[C@@H](CC(=O)O)C(=O)N[C@@H](Cc1ccccc1)C(N)=O (stereo partly shown) [^68Ga-labelled Dimer, metal not drawn] | −2.38 ± 0.04 | 17.9 ± 6.1^c | 16.0 ± 3.1^cd | 11.6 ± 1.9^c | 27.2 ± 4.8^cd | 19.9 ± 4.9^acd | 0.30 ± 0.06^cd | 11.1 ± 2.4^c | 14.4 ± 2.3^cd | 31.4 ± 13.2^cd | 17.9 ± 3.2^cd | 23.1 ± 4.2^cd | 4.0 ± 0.5^c | 8.36 ± 0.90^ac % ID/g | 0.36 ± 0.22^cd % ID/g | 0.53 ± 0.06^cd % ID/g | 0.60 ± 0.21^cd % ID/g | 0.31 ± 0.04^cd % ID/g | 0.44 ± 0.06^c % ID/g | 28.9 ± 3.4^cd % ID/g | Biodistribution: Liver [2]: 0.78 ± 0.09^c % ID/g; Biodistribution: Lung [2]: 0.59 ± 0.08^cd % ID/g; Biodistribution: Muscle [2]: 0.30 ± 0.08^cd % ID/g; Biodistribution: Pancreas [2]: 0.48 ± 0.06^cd % ID/g; Biodistribution: Spleen [2]: 0.37 ± 0.04^cd % ID/g; Biodistribution: Stomach [2]: 2.13 ± 0.23^c % ID/g |
| DOTA-MG11: reference peptide: DOTA-conjugated minigastrin analogue MG11 (EAYGWMDF; synthetic human minigastrin analogue) |  |  |  |  |  |  |  |  |  |  |  |  |  |  |  |  |  |  |  |  | IC50 [3]: 9.5 ± 0.5 nM |
| CSCC[C@H](NC(=O)[C@H](Cc1c[nH]c2ccccc12)NC(=O)CNC(=O)[C@H](Cc1ccc(O)cc1)NC(=O)[C@H](C)NC(=O)[C@@H](CCC(=O)O)NC(=O)CCSC1CC(=O)N(CCC(=O)NC2CCCN(O)C(=O)C=C(C)CCOC(=O)C(NC(C)=O)CCCN(O)C(=O)C=C(C)CCOC(=O)C(NC(C)=O)CCCN(O)C(=O)C=C(C)CCOC2=O)C1=O)C(=O)N[C@@H](CC(=O)O)C(=O)N[C@@H](Cc1ccccc1)C(N)=O (stereo partly shown) [^68Ga-labelled Monomer, metal not drawn] | −2.99 ± 0.02 | 16.3 ± 3.3^bd | 14.4 ± 3.6^b | 17.1 ± 7.4^bd | 29.5 ± 9.3^bd | 9.4 ± 3.7^b | 0.86 ± 0.13^abd | 21.1 ± 3.1^abd | 11.7 ± 2.1^bd | 20.4 ± 1.8^b | 16.7 ± 3.0^bd | 27.3 ± 6.3^b | 4.6 ± 1.1^b | 4.86 ± 1.00^d % ID/g | 0.30 ± 0.04^b % ID/g | 0.35 ± 0.06^ab % ID/g | 0.31 ± 0.08^b % ID/g | 0.17 ± 0.02^ab % ID/g | 0.58 ± 0.17^b % ID/g | 5.57 ± 0.57^abd % ID/g | Biodistribution: Liver [2]: 0.23 ± 0.02^ab % ID/g; Biodistribution: Lung [2]: 0.42 ± 0.06^ab % ID/g; Biodistribution: Muscle [2]: 0.20 ± 0.05^b % ID/g; Biodistribution: Pancreas [2]: 0.29 ± 0.02^ab % ID/g; Biodistribution: Spleen [2]: 0.18 ± 0.04^ab % ID/g; Biodistribution: Stomach [2]: 1.07 ± 0.14^ab % ID/g |
